Here are results for three molecules from US20200308294A1 (published 2020).

The target of one test is VEGF (UniProt P15692). Description: VEGF co-incubated with AB160, particulate removed, free VEGF in the supernatant measured by ELISA. For orientation: An ELISA detects its analyte on a solid surface through an enzyme-linked reagent.
For test [1], the target named is AB160 (nanoparticle of albumin-bound paclitaxel and bevacizumab, ratio about 10:4, average size 160 nm) (UniProt P02768). The experiment in a line: flow cytometry of particles stained with goat anti-mouse IgG and PE detection. For orientation: A flow cytometer gives signals particle by particle.
Test [2] deals with ABRAXANE (albumin-bound paclitaxel) (UniProt P02768). Description: flow cytometry of particles stained with goat anti-mouse IgG and PE detection; ABX alone as comparison.
The target of test [3] is T1, ABRAXANE (albumin-bound paclitaxel) (UniProt P02768 25-609, non-covalently bound paclitaxel (nanoparticle of about 130 nm)).
T1 construct: A nanoparticle of many albumin molecules with paclitaxel, not a single protein; also called ABX; Paclitaxel Albumin-stabilized Nanoparticle Formulation
The experiment in a line: VEGF co-incubated with ABX for 2 hours, particulate spun down, free VEGF in the supernatant measured by ELISA.
Procedure: The VEGF was incubated with the nanoparticles for 2 hours at room temperature. The suspension was spun at 6000 rpm for 15 minutes, supernatants were collected and free VEGF was measured by ELISA. Briefly, ELISA plates were coated with capture antibody overnight at 4° C. Plates were washed, blocked and standards and samples were added. After washing, detection antibody was added and plates were developed with substrate (R and D Systems, Minneapolis, Minn.). […] The concentration of unbound VEGF was determined with a standard curve from 0 to 2000 μg/ml.

Turning to “AB160 (nanoparticle of albumin-bound paclitaxel and bevacizumab, ratio about 10:4, average size 160 nm) (from UniProt P02768 25-609)”, the % VEGF unbound with VEGF was under 10%.
On to goat anti-mouse IgG (antibody), for which the % positive in test [1] was 41.2%; in test [2], 6.7%.

B1: VEGF (ligand, UniProt P15692-4 27-191, looked up)
chain: APMAEGGGQNHHEVVKFMDVYQRSYCHPIETLVDIFQEYPDEIEYIFKPSCVPLMRCGGCCNDEGLECVPTEESNITMQIMRIKPHQGQHIGEMSFLQHNKCECRPKKDRARQENPCGPCSERRKHLFVQDPQTCKCSCKNTDSRCKARQLELNERTCRCDKPRR
notes: Soluble VEGF added to the nanoparticles
Consider B1, for which, in test [3], the binding result was “no binding (tested: >80% VEGF unbound)”.
